Measured values from patent publication US20040208887A1 (MOLECULES OF MAN, published 2004).

B1: Fab clone 2b-10 (Fab, V domains shown)
VH: EVQLLESGGGVVQPGRSLKLSCTASTFTFTNYAMHWVRQAPGKGLEWVALISNDGSKTYYTDSVRGRFTISRDNSKNTLFLQMNSLRTEDTAVYHCARVKLQGSFNVYYYYGLDVWGQGTTVTVSS
VL: AELTQSPLSLPVTPGEPASISCRSSQSLLHSDGYNYFDWYLQKPGQSPQLLIYLGSNRASGVPDRFSGSGSDTDFTLKISRVEAEDVGVYYCMQTLQTLTFGGGTKLEIK
notes: Human Fab (gamma1 Fd + kappa), crude periplasmic preparation, approx. >1.0 ug Fab/ml
B2: Fab clone 2b-4 (Fab, V domains shown)
VH: EVQLLESGGEVKKPGSSVKVSCKASGGPFSSYAIHWVRQAPGQGLEWMGAIIPFLGRAKYAQKFEGRVTITADGSMSTAYMEVSSLRSDDTAMYYCARDRGELLLRMDVWGQGTAVTVSS
VL: AELTQSPAFMSATPGDKVNISCKASQDIDDDMNWYQQKPGEAAIFIIQEATTLVPGIPPRFSGSGYGTDFTLTINNIESEDAAYYFCLQHDNFPLTFGQGTKVEIK
notes: Human Fab (gamma1 Fd + kappa), crude periplasmic preparation, approx. 0.68 ug Fab/ml
B3: Fab clone 2b-7 (Fab, V domains shown)
VH: VQLLEQSGAEVKKPGESLKISCRASGYSFSLFWVAWVRQMPGQGLEWMAIIYPGDSDTTYSPSFEGQVNVSVDKPISTAYLQWSSLKASDTAMYYCARRRSSDRRDAFDIWGPGTMVTVSS
VL: B2 VL
notes: Human Fab (gamma1 Fd + kappa), crude periplasmic preparation, approx. 0.54 ug Fab/ml
B4: Fab clone 1:4 (Fab, V domains shown)
VH: EVQLLESGPGLVKPSETLSLTCTVSNGSMSNYCWSWIRQSPGKGLEWIGYIYYSGSTSYNPSLRSRVALLVDTSKNQFSLKLTSVTTADTAVYYCARDLSARGGTRNRDALDVWGQGTQVTVSA
VL: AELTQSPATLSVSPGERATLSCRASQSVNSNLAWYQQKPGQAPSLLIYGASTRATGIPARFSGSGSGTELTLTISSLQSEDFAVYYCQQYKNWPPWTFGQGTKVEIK
notes: Human Fab (gamma1 Fd + kappa), crude periplasmic preparation, approx. 0.01 ug Fab/ml
B5: Fab clone 2b-5 (Fab, V domains shown)
VH: EVQLLESGGGVVQPGRSLRLSCAASGFTLSTYAMHWVRQAPGRGLEWVAVISYDGDHKFYADSMKGRFAISRDTSTNTLYLEVNSLKIEDTAVYYCARDRDRRGGYVFSTTGGLDSWGQGTLVTVSS
VL: AELTQSPLSLAVTPGEPASISCRTSQSLLHSNGYTYLDWYLQKPGQSPQLLIYLASNRASGVPDRFSGSGSGTDFTLEISRVEAEDVGVYYCMQPLQTPVTFGQGTKVEVK
notes: as for B1

Tests used:
[1] = target: T1, recombinant soluble HCV E1 protein (hepatitis C virus); assay: ELISA, recombinant E1 captured on GNA lectin; crude periplasmic Fab
T1 construct: It is not the cell-surface E1-myc construct (aa 174-359 of H77c) that was used for phage selection; also called recombinant E1; soluble E1 protein

[2] = target: T2, recombinant E1/E2 heterodimer protein (genotype 1a) (hepatitis C virus genotype 1a, UniProt P26664 192-383; P26664 384-746, limits assumed); assay: ELISA, E1/E2 heterodimer coated; crude periplasmic Fab
T2 construct: also called E1/E2 in complex; recombinant E1/E2 antigen
T2 sequence (P26664 192-383 limits assumed, chain 1 of 2): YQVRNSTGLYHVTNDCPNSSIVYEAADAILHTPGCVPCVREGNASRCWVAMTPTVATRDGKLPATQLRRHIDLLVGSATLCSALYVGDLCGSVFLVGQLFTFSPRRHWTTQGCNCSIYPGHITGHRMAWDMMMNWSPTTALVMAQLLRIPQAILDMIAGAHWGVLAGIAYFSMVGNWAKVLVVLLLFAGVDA
T2 sequence (P26664 384-746 limits assumed, chain 2 of 2): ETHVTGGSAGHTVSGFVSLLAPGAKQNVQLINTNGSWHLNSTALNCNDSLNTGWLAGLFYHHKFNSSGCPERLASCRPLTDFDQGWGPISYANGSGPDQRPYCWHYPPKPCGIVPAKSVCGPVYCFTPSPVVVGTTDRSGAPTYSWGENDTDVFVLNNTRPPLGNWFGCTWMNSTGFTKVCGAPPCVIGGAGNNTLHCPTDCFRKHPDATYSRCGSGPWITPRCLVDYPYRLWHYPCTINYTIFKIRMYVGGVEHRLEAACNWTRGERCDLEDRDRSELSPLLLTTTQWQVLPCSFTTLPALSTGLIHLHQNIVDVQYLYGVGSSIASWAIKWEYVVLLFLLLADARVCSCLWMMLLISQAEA

Row | Binder | OD405 nm [1] [OD405 nm] | OD405 nm [2] [OD405 nm]
1 | B1 | 0.48 | 0.11
2 | B2 | 0.11 | 0.09
3 | B3 | 0.47 | 0.32
4 | B4 | 0.78 | 0.67
5 | B5 | 2.21 | 1.4
